Tests used:
Type in all cases: cell-based, Human
U87 glioma cells = experiment: Histone H2A.X phosphorylation immunoblot after TMZ; details: U87, TMZ 500 μM, control or SGEF depleted conditions
Method: (§1) For immunoblotting, cells were lysed in 2×SDS sample buffer (0.25 M Tris-HCl, pH 6.8, 10% SDS, 25% glycerol) containing 10 μg/mL aprotinin, 10 μg/mL leupeptin, 20 mM NaF, 2 mM sodium orthovanadate, and 1 mM phenylmethylsulfonyl fluoride. Protein concentrations were determined using the BCA assay (Pierce) with bovine serum albumin as a standard. Thirty micrograms of total protein were loaded per lane and separated by SDS PAGE. After 4° C. transfer, the nitrocellulose (Invitrogen) was blocked with either 5% nonfat milk or 5% BSA in Tris-buffered saline, pH 8.0, containing 0.1% Tween 20 (TBST) prior to addition of primary antibodies and followed with peroxidase-conjugated anti-mouse IgG or anti-rabbit IgG. Protein was detected using SuperSignal West Dura Chemiluminescent Substrate (Thermo Scientific) with a UVP BioSpectrum 500 Imaging System (Upland, Calif.). Densitometry was calculated via Image J software.

[1] = system: SGEF promoter NF-κB p65 consensus sequence; experiment: Biotinylated electrophoretic mobility shift assay, NF-κB binding site of the SGEF promoter; details: T98G nuclear proteins 2 hours after TWEAK 100 ng/mL
Method: T98G glioma cells were plated at a density of 3×10^6 in 100 mm^2 tissue culture dishes in normal growth medium. After 12 h, cells were cultured under reduced serum (0.5% FBS) for an additional 16 h before TWEAK (100 ng/mL) addition for 2 h. Isolation of cell nuclear protein was carried out using the NE-PER kit (Pierce) according to the protocol of the manufacturer. Protein-DNA complexes were detected using biotin end-labeled double-stranded DNA 23-mer probes containing the NF-κB binding sites within the SGEF promoter (NF-κB-SGEF wt target sequence: 5′-GTCTAGGAGGCAAATCCCAGAAA-3′ (SEQ ID NO:5); NF-κB-SGEF mt target sequence: 5′-GTCTAGGAGCCAGATCGCAGAAA-3′(SEQ ID NO:6)). The binding reactions were done using the LightShift kit (Pierce) according to the protocol of the manufacturer. Where indicated, 200-fold molar excess of unlabeled NF-κB-SGEF wt oligonucleotides or anti-p65 antibody was included. The reaction products were resolved by gel electrophoresis and detected by chemiluminescence according to the protocol of the manufacturer (Pierce).

[2] = system: T98G and U118 glioma cells; experiment: TWEAK stimulation: SGEF mRNA (qPCR) and protein (western blot) expression; details: TWEAK 100 ng/mL, increase apparent within two hours
Method: Human astrocytoma cell lines U87, U118, and T98G (American Type Culture Collection), as well as primary glioblastoma xenograft cells (GBM & GBM TMZ-R lines) were maintained in DMEM (Gibco, USA) supplemented with 10% heat-inactivated fetal bovine serum (FBS; Gibco, USA) at 37° C. with 5% CO2. For all assays with TWEAK treatment, cells were cultured in reduced serum (0.5% fetal bovine serum) for 16 h before stimulation with recombinant TWEAK at 100 ng/mL in DMEM+0.1% bovine serum albumin for the indicated times.
as §1, with “After 4° C. transfer, the nitrocellulose (Invitrogen) was blocked with either 5% nonfat milk or 5% BSA in Tris-buffered saline, pH 8.0, containing 0.1% Tween 20 (TBST) prior to addition of primary antibodies and followed with peroxidase-conjugated anti-mouse IgG or anti-rabbit IgG.” left out, “software. […]” for “software.”

Row | Molecule | time to phosphorylation of H2A.X after TMZ treatment (U87 glioma cells) | NF-κB binding to the SGEF promoter region [1] | SGEF mRNA levels [2] | SGEF protein levels [2]
1 | Cn1nnc2c(C(N)=O)ncn2c1=O [TMZ, temozolomide] | ≤ 30 min | – | – | –
2 | TWEAK: Human recombinant TWEAK, tumor necrosis factor-like weak inducer of apoptosis, cytokine ligand of Fn14 (protein) SAPKGRKTRARRAIAAHYEVHPRPGQDGAQAGVDGTVSGWEEARINSSSPLRYNRQIGEFIVTRAGLYYLYCQVHFDEGKAVYLKLDLLVDGVLALRCLEEFSATAASSLGPQLRLCQVSGLLALRPGSSLRIRTLPWAHLKAAPFLTYFGLFQVH | – | NF-κB binds to the SGEF promoter region | increased | increased
